Results: the nanobody polyreactivity screen of Harvey et al. (2022)

Assay: yeast display, Sf9 membrane polyspecificity reagent, FACS + sequencing; frameworks hold sequencing errors
Outline: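 Nanobodies from a synthetic yeast display library (Saccharomyces cerevisiae BJ5465), induced 36–48 hours with galactose, were stained 1 hour at 4 °C with 10% biotinylated, detergent-solubilized Sf9 membrane reagent, enriched on streptavidin microbeads, then FACS-sorted. Anti-HA (expression) and streptavidin (reagent binding) fluorescence set low and high (top ~1%) gates. Polyreactivity labels come from the gate of origin. Genes were colony-PCR amplified, MiSeq 2 × 250 sequenced and filtered by CDR length.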

Sequence | polyreactivity (PSR sort gate)
QVQLVESGGGLVQAGGSLRLSCAASGRIFYTYAMGWYRQAPGKERELVAAIRWRGGSTHYADSVKGRFTISRDNAKNTVYLQMNSLKPEDTAVYYCARDGGWYIDGRAYTGDYWGQGTQVTVSS | high polyreactivity
QVQLVESGGGLVQAGGSLRLSCAASGRIFYTYAMGWYRQAPGKERELVATISGRGGSTYYADSVKGRFTISRDNAKNTVYLLMNSLKPEDTAVYYCAAVSYTQSHAYWGTGYRYGYWGQGTQVTVSS | high polyreactivity
QVQLVESGGGLVQAGGSLRLSCAASGRIFYVNAMGWYRQAPGKERELVATINYTDGSTYYADSVKGRFTISRDKAKNTVYLQMNSMKPEDTAVYYCAADAVWYDFVAYWTTYYYWGPGTQVTVSS | low polyreactivity
QVQLVESGGGLVQAGGSLRLSCAASGRIFYVYAMGWYRQAPGKEREFVAAITRRSGSTYYADSVKGRFTISRDKAKNTVYLQMNSLKPEDTAVYYCNARLKYAFPQVPPYDYWGQGTQVTVSS | high polyreactivity
QVQLVESGGGLVQAGGSLRLSCAASGRIFYVYGMGWYRQAPGKERELVGAISKRGDNTYYADSVKGRFTISRDNAKNTVYLQMNSLNPEDTAVYYCNVKRYGGRSDYWGQGTQVTVSS | high polyreactivity
QVQLVESGGGLVQAGGSLRLSCAASGRIFYWNAMGWYRQAPGKERELVAVITKSGGSTYYADSVKGRFTISRDNAKNTVYLQMNSLKPEDTAVYYCAKSLYVQGYYIYDWGQGTQVTVSS | high polyreactivity
QVQLVESGGGLVQAGGSLRLSCAASGRIFYWYAMGWYRQAPGKERELVAAISGSDGSTYYADSVKGRFTISRDNAKNTVYLQMNSLKPEDTAVYYCADEGSYPRMDYWGQGTQVTVSS | low polyreactivity
QVQLVESGGGLVQAGGSLRLSCAASGRIFYYNAMGWSRQAPGKEWELVAAITYSGTSTYYAASVKGRFTISRDNAKYTVYLQMNSLKPEDTAVDYCNAEGDNRRDRYDYWGQGTQVTVSS | low polyreactivity
QVQLVESGGGLVQAGGSLRLSCAASGRIFYYNAMGWYRQAPGKEREFVAAITYRGGSTYYADSVKGRFTISRDNAKNTVYLQMNSLKPEDTAVYYCAARSAWQVAPRGRTVAFDYWGQGTQLTVSS | high polyreactivity
QVQLVESGGGLVQAGGSLRLSCAASGRIFYYNAMGWYRQAPGKERELVAAITRSGSTNYADSVKGRFTISRDNSKNSVYLQMNSLKPEDTAVYYCAAPWRGSVFRYYSWGQGTQVTVSS | low polyreactivity
QVQLVESGGGLVQAGGSLRLSCAASGRIFYYNAMGWYRQAPGKERELVAAITYIGGNTHYADSVKGRFTISRDNAKNTVYFQMNSLKPEDTAVYYCARGTVLGFYYEYGYWGQGTQVTVSS | low polyreactivity
QVQLVESGGGLVQAGGSLRLSCAASGRIFYYNTMGWYRQAPGKERELVAAISYRGGSTYYADSVKGRFTISRDNAKNTVYLQMNSLKTEDTAVYYCAAPVRQSSYTRYDSWGQGTQVTVSS | high polyreactivity
QVQLVESGGGLVQAGGSLRLSCAASGRIFYYNTMGWYRQAPGKERELVAAITTNGGSTYYADSVKGRFTISRDNAKNTVYLQMNSPKPEDTAVYYCNRDRYPYYYAYNYWGQGTQVTVSS | low polyreactivity
QVQLVESGGGLVQAGGSLRLSCAASGRIFYYYAMGRYRQAPGKERELVAAISWSGGSTYYADSVKGRFTISRDNAKNTVYLQMNSLKPEDTAVYYCAAESRKYREYYYWGQGTQVTVSS | high polyreactivity
QVQLVESGGGLVQAGGSLRLSCAASGRIFYYYAMGWYRQAPGKERELVAAISSRGASTYYADSVKGRFTISRDNAKNTVYLQMNSLKPEDTAVYYCAASTPFRSTRYDYWGQGTQVTVSS | high polyreactivity
QVQLVESGGGLVQAGGSLRLSCAASGRIFYYYAMGWYRQAPGKERELVAAISSSGGSTYYADSVKGRYTISRDNAKNTVYLQMNSLKPEDTAVYYCNARTRYDMGYWGQGTQVTVSS | high polyreactivity
QVQLVESGGGLVQAGGSLRLSCAASGRIFYYYAMGWYRQAPGKERELVAAISWRGTSTYYADSVKGRFTISRDNAKNTVYLQMNSLKPEDTAVYYCAARYTKGMYYWGQGTQVSVSS | high polyreactivity
QVQLVESGGGLVQAGGSLRLSCAASGRIFYYYAMGWYRQAPGKERELVAAISWRGVSTYYADSVKGRFTISRDNAKNTVYLQMNSLKPEDTAVYYCAASQYRSPYPYRDYYTPDYDYWGQGTQVTVSS | high polyreactivity
QVQLVESGGGLVQAGGSLRLSCAASGRIFYYYAMGWYRQAPGKERELVAAITWNGTSTYYADSVKGRFTISRDNAKNTVYLQMNSLKPEDTAVYYCAAEGWVGAWWYVLDVRYDYWGQGTQVTVSS | low polyreactivity
QVQLVESGGGLVQAGGSLRLSCAASGRIFYYYAMGWYRQAPGKERELVATISRSGGSTYYADSVKGRFTISRDNAKNTVYLQMNSLKPEDTAVYYCAAGYGPSGYTRYYWGQGTQVTVSS | high polyreactivity
QVQLVESGGGLVQAGGSLRLSCAASGRIFYYYTMAWYRQAPGKERELVAAISWGGVNTDYADSVKGRFTISRDNAKNTVYLQMNSLKPEDTAVYYCAAGRWSVGTYDYWGQGTQVTVSS | low polyreactivity
QVQLVESGGGLVQAGGSLRLSCAASGRIFYYYVMGWYRQAPGKERELVAAISSRGGCTYYADSVKGRFTISRDNAKNTVYLQMNSLKPEDTAVYYCAAEYGSISLRYPYYWRYDYWGQGTQVTVSS | high polyreactivity
QVQLVESGGGLVQAGGSLRLSCAASGRIGRNAMGWYRQAPVKERELVATISWSAGRTFYADSVKGRFTISRDNAKNTVYLQMNSLKPEDTAVYYCAAGGWQRGYYWGQGTQVTVSS | high polyreactivity
QVQLVESGGGLVQAGGSLRLSCAASGRIGVNAMGWYRPAPGKERELVAAITGGASTYYADSVKGRFTISRDNAKNTVYLQMNSLKPEDTAVYYCNATGEYFGYLDLDYDYWGQGTQVTVSS | low polyreactivity
QVQLVESGGGLVQAGGSLRLSCAASGRIIAGYTMGWYRQAPGKERELVAAIRSSGRTHYADSVKGRFTISRDNAKNTVYLQMNSLKPEDTAVYYCAARWTYTFAYRFDYWGQGTQVTVSS | high polyreactivity
QVQLVESGGGLVQAGGSLRLSCAASGRIIGHYAMGWYRQAPGKERDLVAAISRGGSTYYADSVKGRFTISRDNAKNTVYLQKTSLKPEDTAVYYCAVRSGRRNYDRPAFGYWGQGTQVTVSS | high polyreactivity
QVQLVESGGGLVQAGGSLRLSCAASGRIIGINAMGWYRQAPGKERELVATITSGGDTNYADSVKGRFTISRDNAKNTVYLQMNSLKPEDTAVYYCNAESYGLGFGYDYWGQGTQVTVSS | low polyreactivity
QVQLVESGGGLVQAGGSLRLSCAASGRIIGLYALGWYRQATGKERELVAAISSAGSTYYADSVKGRFTISRDNAKNTVYLQMNSLKPEDTAVYYCAKSRYRGYDYWGQGTQVTVSS | low polyreactivity
QVQLVESGGGLVQAGGSLRLSCAASGRIIGYYAMGWYRQAPGKERELVAAISRRGGSTYYADSVKGRFTISRDNAKNTVYLQINSLKPEDTAVYYCNADRVLTRPRYDYWGQGTQVTVSS | low polyreactivity
QVQLVESGGGLVQAGGSLRLSCAASGRIIGYYAMGWYRQAPGKERELVATINYSGGRTYYADSVKGRFTISRDNAKNTVYLQMNSLKPEDTAVYYCNARESGRGSHDDYWGHGTQVTVSS | high polyreactivity
